These are literature values, as cited in PMC6540150.

For the series, the target named is SOUL BH3 (Homo sapiens) (UniProt Q9Y5Z4).

One may read the Kd as the concentration at which binding is half-saturated. On to Bcl-xL (from UniProt Q07817), for which the Kd was 40 µM.
